According to paper doi:10.1101/2025.06.12.659315, “Structural Basis for Cas9-Directed Spacer Acquisition in Type II-A CRISPR-Cas Systems” (bioRxiv, 2025):

Columns and labels:
[1] = molecular target: the molecule itself; assay: cryo-EM structure; preassembled Cas9/RNA-Csn2-Cas1-Cas2 supercomplex incubated with a 59-bp PAM-containing dsDNA at 4 °C for 30 min; Cas9-containing prespacer catching complex, State I 2.96 Å and State II 3.01 Å
[2] = molecular target: the molecule itself; assay: cryo-EM structure; apo-state Cas9/RNA-Csn2-Cas1-Cas2 supercomplex, assembled from purified proteins and purified by SEC in 20 mM HEPES pH 7.5, 250 mM NaCl; 3.9 Å
[3] = molecular target: T1, Enterococcus faecalis Cas1-Cas2 integrase complex (Cas1_(4)-Cas2_(2) hexamer) (Enterococcus faecalis, UniProt A0A3N3GDE4 1-288; A0A3N3FLR9 1-109); assay: SEC; analytical SEC, Superdex 200 Increase 10/300 GL, 20 mM HEPES pH 7.5, 250 mM NaCl; Cas9/RNA, Csn2 and Cas1-Cas2 mixed; fractions analysed by SDS-PAGE (Coomassie); settings: both partners purified
T1 construct: Cas1 of the Enterococcus faecalis type II-A CRISPR-Cas system, full length; as the chain of m3; Cas2 of the Enterococcus faecalis type II-A CRISPR-Cas system, full length; as the chain of m4; Complex formed beforehand; used as one partner in the gel filtration and DNA cleavage assays; also called Cas1-Cas2 hexamer; Cas1-Cas2 complex; source: E. coli BL21 Star (DE3); tag-cleaved Cas1 and Cas2 …
T1 sequence (looked up) 1: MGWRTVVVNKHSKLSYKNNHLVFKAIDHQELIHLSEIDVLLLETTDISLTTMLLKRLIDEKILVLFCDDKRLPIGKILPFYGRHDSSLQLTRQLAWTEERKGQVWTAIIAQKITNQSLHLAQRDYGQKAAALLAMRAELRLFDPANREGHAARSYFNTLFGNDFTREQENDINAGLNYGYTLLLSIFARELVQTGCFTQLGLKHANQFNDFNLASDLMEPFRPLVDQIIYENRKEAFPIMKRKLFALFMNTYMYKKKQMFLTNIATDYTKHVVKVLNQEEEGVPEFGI
T1 sequence (looked up) 2: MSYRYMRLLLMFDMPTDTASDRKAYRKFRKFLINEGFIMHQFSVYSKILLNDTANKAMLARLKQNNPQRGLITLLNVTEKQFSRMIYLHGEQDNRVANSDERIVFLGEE

B1: Enterococcus faecalis Cas1 (enzyme, UniProt A0A3N3GDE4 1-288, looked up)
chain: MGWRTVVVNKHSKLSYKNNHLVFKAIDHQELIHLSEIDVLLLETTDISLTTMLLKRLIDEKILVLFCDDKRLPIGKILPFYGRHDSSLQLTRQLAWTEERKGQVWTAIIAQKITNQSLHLAQRDYGQKAAALLAMRAELRLFDPANREGHAARSYFNTLFGNDFTREQENDINAGLNYGYTLLLSIFARELVQTGCFTQLGLKHANQFNDFNLASDLMEPFRPLVDQIIYENRKEAFPIMKRKLFALFMNTYMYKKKQMFLTNIATDYTKHVVKVLNQEEEGVPEFGI
notes: Cas1 of the Enterococcus faecalis type II-A CRISPR-Cas system, full-length gene amplified from E. faecalis genomic DNA; Cas1 was purified together with Cas2 (mixed 2:1) before use; also called EfaCas1; Cas1 dimer; source: E. coli BL21 Star (DE3), purified (Ni-NTA, SUMO protease cleavage, Superdex 200 SEC with Cas2)
With B1 the “stoichiometry N” value [1] was 2.

B2: Enterococcus faecalis Cas2 (natural protein, UniProt A0A3N3FLR9 1-109, looked up)
chain: MSYRYMRLLLMFDMPTDTASDRKAYRKFRKFLINEGFIMHQFSVYSKILLNDTANKAMLARLKQNNPQRGLITLLNVTEKQFSRMIYLHGEQDNRVANSDERIVFLGEE
notes: Cas2 of the Enterococcus faecalis type II-A CRISPR-Cas system, full-length gene amplified from E. faecalis genomic DNA; Cas2 was purified together with Cas1 (Cas1:Cas2 mixed 2:1) before use; also called EfaCas2; Cas2 dimer; source: E. coli BL21 Star (DE3), purified (Ni-NTA, SUMO protease cleavage, Superdex 200 SEC with Cas1)
B2 was tested, and the “stoichiometry N” value [2] was 2.

B3: Enterococcus faecalis Csn2 (natural protein, UniProt C7UDU4 1-219, looked up)
chain: MRVNFSLLEEPIEIEKATFLTIKDVQSFAHLVKLIYQYDGENELKLFDAQQKGLKPTELFVVTDILGYDVNSAATLKLIYGDLEAQLNDKPEVKSMIEKLTGTISQLIGYELLEHEMDLEEDGIIVQELFKALGIKIETTSDTIFEKVMEITQVHRYLSKKKLLIFINACTYLTEDEVQQVVEYISLNNVDVLFLEQRVVQNRFQYILDENFYLSYEKA
notes: Csn2 of the Enterococcus faecalis type II-A CRISPR-Cas system, full-length gene amplified from E. faecalis genomic DNA; Homotetramer ring with a central channel for dsDNA; also called EfaCsn2; Csn2 tetramer; source: E. coli BL21 Star (DE3), purified (Ni-NTA, TEV cleavage, Superdex 200 SEC); not shown: His6, N-terminal, cleaved; MBP, N-terminal, cleaved
In the case of B3, the “stoichiometry N” value [1] is reported as 4 and the binding result [3] is reported as “binds”.
